{
  "source": "patent US20260216293A1",
  "about": "“METHODS AND AGENTS FOR TREATING RESPIRATORY INFLAMMATION AND ASSOCIATED DISEASES AND CONDITIONS” (AROA BIOSURGERY LIMITED, priority 2023, published 2026)",
  "molecules": {"B1": {"name": "MD31-170: recombinant MayDay polypeptide comprising amino acids 31-170 of ovine decorin, expressed in BL21 E. coli (protein)", "chain": "DEASGIGPEERFHEVPELEPMGPVCPFRCQCHLRVVQCSDLGLEKVPKDLPPDTALLDLQNNKITEIKDGDFKNLKNLHTLILINNKISKISPGAFAPLVKLERLYLSKNQLKELPEKMPKTLQELRVHENEITKVRKSV", "modifications": "Ovis aries", "notes": "recombinant MayDay polypeptide comprising amino acids 31-170 of ovine decorin, expressed in BL21 E. coli"}},
  "assay_type_in_all_cases": "in vivo, C57BL/6 mice",
  "key": {"[1]": {"system": "murine model of respiratory inflammation (IT LPS)", "assay": "BALF cytokine analysis (MSD) in LPS-induced murine model of respiratory inflammation", "settings": "IV, 1 h before LPS", "description": "All animal experiments were performed in accordance with the guidelines of decreasing the amount of suffering, pain, and discomfort of the experimental animals. A total of 54 male C57BL/6 mice were used in this study. Mice between the ages of 7 to 8 weeks were obtained from IACUC approved laboratory animal supplier. Animals were acclimated for at least 4 days prior to the study. Animals were housed in a temperature-controlled room with a 12-hour light/dark cycle, with ad libitum access to water and irradiated laboratory chow throughout the study. Animals were individually identified by ear tags. Animals were weighed one day prior to the start of the study and stratified into 6 groups of 9 animals so that each group has roughly the same average weight. Animals were monitored for any form of discomfort as well as for clinical symptoms of distress or ambulatory discomfort.\nA total of 54 male C57BL/6 mice (7 to 8 weeks old, body weight […]) were used in this study, as set out below in Table 2.\nAt −1 h (1 hr before the lipopolysaccharide (LPS) administration), animals were treated with: Vehicle for groups 1 and 2 via an intravenous route (200 μL); dexamethasone (5 mg/kg) as a positive control (group 3) via an intraperitoneal (IP) route (5 mg/kg, 200 μL); MD31-170 for groups 4-6 via an intravenous (IV) route at the appropriate dosage (200 μL). […]\n(§1) Lungs were harvested from each animal and weighed. […] The cell pellet was resuspended in 100 μL PBS and the number of total cells was counted using Cell Counter model R1 (Olympus, Tokyo, Japan). […] Neutrophil counts were quantified using a light microscope by counting a total of 200 cells/slide at 40× magnification.\nBALF cytokines concentrations were evaluated from an aliquot of BALF using the 29-plex cytokine MSD Platform (Cat. K152167D) according to manufacturer's instruction."}, "[2]": {"system": "murine model of respiratory inflammation (IT LPS)", "assay": "BALF neutrophil count in LPS-induced murine model of respiratory inflammation", "settings": "all assessed timepoints (6, 24, 72 hours); FIG. 5", "description": "(§2) At −1 h (1 hr before the lipopolysaccharide (LPS) administration), animals were treated with: Vehicle for groups 1 and 2 via an intravenous route (200 μL); dexamethasone (5 mg/kg) as a positive control (group 3) via an intraperitoneal (IP) route (5 mg/kg, 200 μL); MD31-170 for groups 4-6 via an intravenous (IV) route at the appropriate dosage (200 μL).\n(§3) After administration of anesthesia by sodium pentobarbital, the mice underwent intra-tracheal (IT) instillation of a nonlethal dose of LPS from E. coli 0111: B4 (Sigma-Aldrich, St. Louis, MO, USA) at 5 mg/kg dissolved in 100 μl PBS to induce acute respiratory inflammation. LPS (Sigma L4391, O111: B4) lyophilized powder was resuspended in 0.9% saline to give aliquots at 2.5 mg/ml which were stored at […]. At time=0 h, animals in vehicle group 1 were administered PBS (40 μL) via an IT route and animals in groups 2-6 were administered LPS (40 μL) at 5 mg/kg by an IT route to induce acute respiratory inflammation. Termination occurred at either 6 h, 24 h or 72 h with each animal weighed at the endpoint.\nas §1"}, "[3]": {"system": "murine model of respiratory inflammation (IT LPS)", "assay": "MPO levels of BALF in LPS-induced murine model of respiratory inflammation", "settings": "groups 4, 5 and 6 (2.5, 25, 100 μg/animal IV) at 6 hours and 24 hours; FIG. 6", "description": "as §2\nAfter administration of anesthesia by sodium pentobarbital, the mice underwent intra-tracheal (IT) instillation of a nonlethal dose of LPS from E. coli 0111: B4 (Sigma-Aldrich, St. Louis, MO, USA) at 5 mg/kg dissolved in 100 μl PBS to induce acute respiratory inflammation. LPS (Sigma L4391, O111: B4) lyophilized powder was resuspended in 0.9% saline to give aliquots at 2.5 mg/ml which were stored at 20° C. […]\nas §1\nMPO levels were evaluated from an aliquot of BALF in an MPO assay using Abcam kit (Cat. Ab155458) according to manufacturer's instructions."}, "[4]": {"system": "murine model of respiratory inflammation (IT LPS)", "assay": "Lung histological pathology (H&E, lung injury score) in LPS-induced murine model of respiratory inflammation", "description": "as §2, §3\nThe whole lung was fixed in 10% Neutral Buffered Formalin (NBF) and embedded in paraffin and then cut into 4 μm sections. Then, the sections were deparaffinized and stained with hematoxylin and eosin (H&E) for histological evaluation.\nThe severity of lung tissue inflammation was evaluated using lung injury score as follows. The severity of lung damage was scored based on the following histologic features: alveolar congestion, hemorrhage, infiltration of neutrophils in airspace or vessel wall, and thickness of alveolar wall/hyaline membrane formation. Each item was graded on a five-point scale from 0 to 4:0 (minimal damage), 1 (mild damage), 2 (moderate damage), 3 (severe damage), and 4 (maximal damage)."}, "[5]": {"settings": "groups 4, 5 and 6 vs dexamethasone 5 mg/kg IP, FIGS. 7-9"}},
  "data": [
    {"molecule": "B1", "values": [
      {"measurement": "protein levels of TNF-α in BALF", "setting": "[1]; 6 hours post-administration, compared to LPS control group (group 2), FIG. 2A", "value": "significantly decreased"},
      {"measurement": "protein levels of IFN-γ in BALF", "setting": "[1]; 24 hours post-administration, compared with LPS group (group 2), FIG. 3B", "value": "significantly decreased"},
      {"measurement": "protein levels of IL-6 in BALF", "setting": "[1]; 24 hours post-administration, compared with LPS group (group 2), FIG. 4B", "value": "significantly decreased"},
      {"measurement": "number of neutrophils in BALF", "setting": "[2]", "value": "decreased significantly"},
      {"measurement": "myeloperoxidase (MPO) in BALF", "setting": "[3]", "value": "significantly reduced"},
      {"measurement": "neutrophil score, inflammation score and interstitial inflammation score: dose dependence", "setting": "[4]; 6, 24 and 72 hours post LPS-induction", "value": "dose dependent changes"},
      {"measurement": "neutrophil score (histology)", "setting": "[4]; 24 hours, group 6 (100 μg/mouse) compared to LPS control (group 2), FIG. 7B", "value": "statistically significant decreases"},
      {"measurement": "inflammation score (inflammation-neutrophilic alveolar score, histology)", "setting": "[4]; 24 hours, group 6 (100 μg/mouse) compared to LPS control (group 2), FIG. 8B", "value": "statistically significant decreases"},
      {"measurement": "interstitial inflammation score (histology)", "setting": "[4]; 24 hours, group 6 (100 μg/mouse) compared to LPS control (group 2), FIG. 9B", "value": "statistically significant decreases"},
      {"measurement": "lung injury score", "setting": "[4]; groups 4, 5 and 6 (2.5, 25, 100 μg/animal IV)", "value": "consistently and substantially decreased"},
      {"measurement": "pathological changes in the lung (alveolar wall not intact, interstitial edema, inflammatory cell infiltration)", "setting": "[4]; groups 4, 5 and 6 (2.5, 25, 100 μg/animal IV), H&E", "value": "alleviated"},
      {"measurement": "lung damage relative to dexamethasone treated animals (group 3)", "setting": "[4]; [5]", "value": "comparable or less than"},
      {"measurement": "positive effect on lung pathology relative to positive control dexamethasone (group 3)", "setting": "[4]; [5]", "value": "comparable to or better than"}
    ]}
  ]
}
